Data from US20220017589A1 (BEIJING QL BIOPHARMACEUTICAL, published 2022).

T1: human GFRAL (human, UniProt Q6UXV0 19-394)
T1 sequence (looked up): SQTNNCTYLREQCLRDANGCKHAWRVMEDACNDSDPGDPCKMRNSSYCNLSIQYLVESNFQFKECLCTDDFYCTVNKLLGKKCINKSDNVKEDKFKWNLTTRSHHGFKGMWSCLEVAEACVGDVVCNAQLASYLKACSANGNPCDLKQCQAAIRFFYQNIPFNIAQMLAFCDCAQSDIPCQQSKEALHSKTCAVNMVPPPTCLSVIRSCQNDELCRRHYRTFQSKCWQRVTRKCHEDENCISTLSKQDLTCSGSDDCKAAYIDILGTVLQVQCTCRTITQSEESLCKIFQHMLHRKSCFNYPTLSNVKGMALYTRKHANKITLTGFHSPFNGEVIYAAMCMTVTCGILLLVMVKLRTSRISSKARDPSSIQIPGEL


Tests used:
[1] = biological target: T1, human GFRAL; test: cell-based or functional assay
[2] = biological target: human GLP-1 receptor (human, UniProt P43220 24-463); test: cell-based or functional assay

Binder	GDF15 activity (EC50, pM) [1]	GLP-1 activity (EC50, pM) [2]
MLC021 (ligand) HGEGTFTSDVSSYLEEQAAKEFIAWLVRGGGGQEPGAQPGQEPGAQPGQEPGAQPGQEPGAQPGQEPGAQPGQEPGAQPGAQPGAQPGAQPGAQPGAQPGAQPGAQPGAQPARQGDHCPLGPGRCCRLHTVRASLEDLGWADWVLSPREVQVTMCIGACPSQFRAANLHAQIKTSLHRLKPDTVPAPCCVPASYNPMVLIQKTDTGVSLQTYDDLLAKDCHCI	67.3 pM	5.7 pM
MLC019 (ligand) HGEGTFTSDVSSYLEEQAAKEFIAWLVRGGGGQEPGAQPGQEPGAQPGQEPGAQPGQEPGAQPGQEPGAQPGQEPGAQPGAQPGAQPGAQPGAQPGAQPGAQPGAQPGAQPARQGDHCPLGPGRCCRLHTVRASLEDLGWADWVLSPREVQVTMCIGACPSQFRAANLHAQIKTSLHRLRPDTVPAPCCVPASYNPMVLIQRTDTGVSLQTYDDLLARDCHCI	80.5 pM	8 pM
MLC096 (ligand) HGEGTFTSDVSSYLEEQAAKEFIAWLVRGGGGQEPGAQPGQEPGAQPGQEPGAQPGQEPGAQPGQEPGAQPGQEPGAQPGAQPGAQPGAQPGAQPGAQPGAQPGAQPGAQPARQGDHCPLGPGRCCRLHTVRASLEDLGWADWVLSPREVQVTMCIGACPSQFRAANLHAQIKTSLHRLKPDTVPAPCCVPASYNPMRLIQKTDTGVSLQTYDDLLAKDCHCI	> 5000 pM	1.3 pM
MLC102 (ligand) HGEGTFTSDVSSYLEEQAAKEFIAWLVRGGGGQEPGAQPGQEPGAQPGQEPGAQPGQEPGAQPGQEPGAQPGQEPGAQPGAQPGAQPGAQPGAQPGAQPGAQPGAQPGAQPGAQPGAQPGAQPGAQPGAQPGAQPGAQPGAQPGAQPGAQPARQGDHCPLGPGRCCRLHTVRASLEDLGWADWVLSPREVQVTMCIGACPSQFRAANLHAQIKTSLHRLKPDTVPAPCCVPASYNPMVLIQKTDTGVSLQTYDDLLAKDCHCI	29 pM	2.5 pM
MLC097 (ligand) EGTFTSDVSSYLEEQAAKEFIAWLVRGGGGQEPGAQPGQEPGAQPGQEPGAQPGQEPGAQPGQEPGAQPGQEPGAQPGAQPGAQPGAQPGAQPGAQPGAQPGAQPGAQPARQGDHCPLGPGRCCRLHTVRASLEDLGWADWVLSPREVQVTMCIGACPSQFRAANLHAQIKTSLHRLKPDTVPAPCCVPASYNPMVLIQKTDTGVSLQTYDDLLAKDCHCI	32.9 pM	> 900 pM
MLC026 (ligand, Moiety A (HOOC-(CH2)16-CO-gGlu-2XADO) on 55K of Linker (86K of fusion polypeptide)) HGEGTFTSDVSSYLEEQAAREFIAWLVRGGGGAQPGAQPGAQPGAQPGAQPGAQPGAQPGAQPGAQPGAQPGQEPGQEPGQEPGQKPGQEPGQEPGQEPGQEPGAQPGAQPARQGDHCPLGPGRCCRLHTVRASLEDLGWADWVLSPREVQVTMCIGACPSQFRAANLHAQIKTSLHRLRPDTVPAPCCVPASYNPMVLIQRTDTGVSLQTYDDLLARDCHCI	56.1 pM	–
MLC027 (ligand, Moiety A (HOOC-(CH2)16-CO-gGlu-2XADO) on 55K of Linker (86K of fusion polypeptide)) HGEGTFTSDVSSYLEEQAAREFIAWLVRGGGGAQPGAQPGAQPGAQPGAQPGAQPGAQPGAQPGQEPGAQPGQEPGAQPGQEPGQKPGQEPGQEPGQEPGQEPGAQPGAQPARQGDHCPLGPGRCCRLHTVRASLEDLGWADWVLSPREVQVTMCIGACPSQFRAANLHAQIKTSLHRLRPDTVPAPCCVPASYNPMVLIQRTDTGVSLQTYDDLLARDCHCI	45.4 pM	–
MLC100 (ligand) HGEGTFTSDVSSYLEEQAAKEFIAWLVRGGGGQEPARQGDHCPLGPGRCCRLHTVRASLEDLGWADWVLSPREVQVTMCIGACPSQFRAANLHAQIKTSLHRLKPDTVPAPCCVPASYNPMVLIQKTDTGVSLQTYDDLLAKDCHCI	29.9 pM	3.1 pM
MLC023 (ligand) HGEGTFTSDVSSYLEEQAAKEFIAWLVRGGGGQEPGQEPGQEPARQGDHCPLGPGRCCRLHTVRASLEDLGWADWVLSPREVQVTMCIGACPSQFRAANLHAQIKTSLHRLKPDTVPAPCCVPASYNPMVLIQKTDTGVSLQTYDDLLAKDCHCI	62.8 pM	4 pM
MLC043 (ligand, Moiety A (HOOC-(CH2)16-CO-gGlu-2XADO) on 26K of GLP-1 (20K of fusion polypeptide)) HGEGTFTSDVSSYLEEQAAKEFIAWLVRGGGGQEPGAQPGQEPGAQPGQEPGAQPGQEPGAQPGQEPGAQPGQEPGAQPGAQPGAQPGAQPARQGDHCPLGPGRCCRLHTVRASLEDLGWADWVLSPREVQVTMCIGACPSQFRAANLHAQIKTSLHRLRPDTVPAPCCVPASYNPMVLIQRTDTGVSLQTYDDLLARDCHCI	39 pM	1.8 pM
MLC124 (ligand) HGEGTFTSDVSSYLEEQAAKEFIAWLVRGGGGQEPGAQPGQEPGAQPGQEPGAQPGQEPGAQPGQEPGAQPGQEPGAQPGAQPGAQPGAQPARQGDHCPLGPGRCCRLHTVRASLEDLGWADWVLSPREVQVTMCIGACPSQFRAANLHAQIKTSLHRLRPDTVPAPCCVPASYNPMVLIQRTDTGVSLQTYDDLLARDCHCI	27.5 pM	2.5 pM
MLC022 (ligand) HGEGTFTSDVSSYLEEQAAKEFIAWLVRGGGGQEPGQEPGQEPGQEPGQEPGQEPARQGDHCPLGPGRCCRLHTVRASLEDLGWADWVLSPREVQVTMCIGACPSQFRAANLHAQIKTSLHRLKPDTVPAPCCVPASYNPMVLIQKTDTGVSLQTYDDLLAKDCHCI	59.2 pM	6.7 pM
MLC006 (ligand, Moiety A (HOOC-(CH2)16-CO-gGlu-2XADO) on 36K of GLP-1 (30K of fusion polypeptide)) HGEGTFTSDVSSYLEEQAAREFIAWLVRGKGGQEPGQEPGQEPGQEPGQEPGQEPGQEPGQEPGAQPGAQPARQGDHCPLGPGRCCRLHTVRASLEDLGWADWVLSPREVQVTMCIGACPSQFRAANLHAQIKTSLHRLRPDTVPAPCCVPASYNPMVLIQRTDTGVSLQTYDDLLARDCHCI	11.6 pM	28.7 pM
MLC002 (ligand, Moiety A (HOOC-(CH2)16-CO-gGlu-2XADO) on 26K of GLP-1 (20K of fusion polypeptide)) HGEGTFTSDVSSYLEEQAAKEFIAWLVRGGGGQEPGQEPGQEPGQEPGQEPGQEPGQEPGQEPGAQPGAQPARQGDHCPLGPGRCCRLHTVRASLEDLGWADWVLSPREVQVTMCIGACPSQFRAANLHAQIKTSLHRLRPDTVPAPCCVPASYNPMVLIQRTDTGVSLQTYDDLLARDCHCI	17.9 pM	13.1 pM
MLC008 (ligand, Moiety A (HOOC-(CH2)16-CO-gGlu-2XADO) on 6K of Linker (37K of fusion polypeptide)) HGEGTFTSDVSSYLEEQAAREFIAWLVRGGGGQEPGKEPGQEPGQEPGQEPGQEPGQEPGQEPGAQPGAQPARQGDHCPLGPGRCCRLHTVRASLEDLGWADWVLSPREVQVTMCIGACPSQFRAANLHAQIKTSLHRLRPDTVPAPCCVPASYNPMVLIQRTDTGVSLQTYDDLLARDCHCI	15.3 pM	4.3 pM
MLC012 (ligand, Moiety A (HOOC-(CH2)16-CO-gGlu-2XADO) on 12K of Linker (43K of fusion polypeptide)) HGEGTFTSDVSSYLEEQAAREFIAWLVRGGGGQEPGQEPGQEKGQEPGQEPGQEPGQEPGQEPGQEPGQEPARQGDHCPLGPGRCCRLHTVRASLEDLGWADWVLSPREVQVTMCIGACPSQFRAANLHAQIKTSLHRLRPDTVPAPCCVPASYNPMVLIQRTDTGVSLQTYDDLLARDCHCI	32.8 pM	3.5 pM
MLC009 (ligand, Moiety A (HOOC-(CH2)16-CO-gGlu-2XADO) on 15K of Linker (46K of fusion polypeptide)) HGEGTFTSDVSSYLEEQAAREFIAWLVRGGGGQEPGQEPGQEPGQKPGQEPGQEPGQEPGQEPGAQPGAQPARQGDHCPLGPGRCCRLHTVRASLEDLGWADWVLSPREVQVTMCIGACPSQFRAANLHAQIKTSLHRLRPDTVPAPCCVPASYNPMVLIQRTDTGVSLQTYDDLLARDCHCI	24.6 pM	1.8 pM
MLC007 (ligand, Moiety A (HOOC-(CH2)16-CO-gGlu-2XADO) on 1K of Linker (32K of fusion polypeptide)) HGEGTFTSDVSSYLEEQAAREFIAWLVRGGGKQEPGQEPGQEPGQEPGQEPGQEPGQEPGQEPGAQPGAQPARQGDHCPLGPGRCCRLHTVRASLEDLGWADWVLSPREVQVTMCIGACPSQFRAANLHAQIKTSLHRLRPDTVPAPCCVPASYNPMVLIQRTDTGVSLQTYDDLLARDCHCI	9.5 pM	5.9 pM
MLC020 (ligand) HGEGTFTSDVSSYLEEQAAKEFIAWLVRGGGGQEPGQEPGQEPGQEPGQEPGQEPGQEPGQEPGAQPGAQPARQGDHCPLGPGRCCRLHTVRASLEDLGWADWVLSPREVQVTMCIGACPSQFRAANLHAQIKTSLHRLKPDTVPAPCCVPASYNPMVLIQKTDTGVSLQTYDDLLAKDCHCI	55.9 pM	–
MLC003 (ligand) HGEGTFTSDVSSYLEEQAAKEFIAWLVRGGGGQEPGQEPGQEPGQEPGQEPGQEPGQEPGQEPGAQPGAQPARQGDHCPLGPGRCCRLHTVRASLEDLGWADWVLSPREVQVTMCIGACPSQFRAANLHAQIKTSLHRLRPDTVPAPCCVPASYNPMVLIQRTDTGVSLQTYDDLLARDCHCI	55 pM	7.8 pM
